Measured values as given in patent US10098865B2, “Multi-arm polymeric prodrug conjugates of taxane-based compounds” (Nektar Therapeutics, priority 2010, dated 2018).

Assay: Maximum Tolerated Dose (MTD) study of d9-docetaxel conjugates in athymic mice
Format: in vivo, female athymic nu/nu mice
Conditions: for MTD (maximum tolerated dose), estimated: athymic nu/nu mice, qwk×3, iv, dose refers to d9-docetaxel content; for Body Weight Nadir / Body Weight Nadir (day): day of nadir / Treatment-Related Deaths: female athymic nu/nu mice, qwk x 3
Procedure: MTD for 4-arm-PEG20K-CM-glycine-d9-docetaxel and 4-arm-PEG20K-BA-d9-docetaxel were determined in female athymic nu/nu mice using standard methods. For all test compounds, the dose refers to the d9-docetaxel content. d9-Docetaxel solutions were prepared in D5W containing 7.5% Tween 80:7.5% ethanol. PEG-d9-docetaxel conjugates were prepared in D5W. The administration volume for all test articles was 10 mL/kg. Mice were observed daily for clinical signs and body weights were recorded on days 1-5 and then biweekly until the end of study. Any individual animal with a single observation of greater than 30% body weight loss or three consecutive measurements of greater than 25% body weight loss was euthanized. For any group with two measurements of mean body weight loss of greater than 20%, dosing was stopped and recovery was allowed. Within a group with greater than 20% mean weight loss, individual animals greater than 30% body weight loss were euthanized. Compound dosing was terminated for any group in which mean weight loss exceeded 20% or >10% of animals died. Moribund animals were euthanized and all animals were euthanized at end of study.

[1] = 7.5 mg/kg (d9-docetaxel content) iv
[2] = 30 mg/kg (d9-docetaxel content) iv
[3] = N=5, 7.5 mg/kg (d9-docetaxel content) iv
[4] = N=5, 15 mg/kg (d9-docetaxel content) iv
[5] = N=5, 30 mg/kg (d9-docetaxel content) iv
[6] = 15 mg/kg (d9-docetaxel content) iv

## 4-ARM-PEG20K-Butanoate-Linked d9-Docetaxel Conjugate [4ARM-PEG20K-BA-d9-DOC]
  MTD (maximum tolerated dose), estimated: 20 mg/kg
[1]
  Body Weight Nadir: −0.6%
  Body Weight Nadir (day): day of nadir: 2 days
[2]
  Body Weight Nadir: −21.0%
  Body Weight Nadir (day): day of nadir: 21 days
[3]
  Treatment-Related Deaths: 0
[4]
  Treatment-Related Deaths: 0
[5]
  Treatment-Related Deaths: 0

## 4-ARM-PEG20K-Glycinate-Linked d9-Docetaxel Conjugate [4ARM-PEG20K-CM-GLY-d9-DOC]
  MTD (maximum tolerated dose), estimated: 20 mg/kg
[1]
  Body Weight Nadir: −1.6%
  Body Weight Nadir (day): day of nadir: 2 days
[6]
  Body Weight Nadir: −4.2%
  Body Weight Nadir (day): day of nadir: 10 days
[2]
  Body Weight Nadir: −25.2%
  Body Weight Nadir (day): day of nadir: 21 days
[3]
  Treatment-Related Deaths: 0
[4]
  Treatment-Related Deaths: 0
[5]
  Treatment-Related Deaths: 0

## [2H]C([2H])([2H])C(OC(=O)N[C@@H](c1ccccc1)[C@@H](O)C(=O)O[C@H]1C[C@@]2(O)[C@@H](OC(=O)c3ccccc3)C3C(C)(C(=O)[C@H](O)C(=C1C)C2(C)C)[C@@H](O)CC1OC[C@]13OC(C)=O)(C([2H])([2H])[2H])C([2H])([2H])[2H] (stereo partly drawn) [Docetaxel-d9, d9-Docetaxel]
25 mg/kg iv
  Body Weight Nadir: −17.7%
  Body Weight Nadir (day): day of nadir: 21 days
N=5, 25 mg/kg iv
  Treatment-Related Deaths: 0
